The text below walks through data of patent publication US7494647 (Chugai, dated 2009).

The assay deals with T1, human tissue factor (TF) on human bladder carcinoma cells J82 (human, UniProt P13726 33-295).
T1 construct: whole, on cells; also called the antigen; J82 cells
In words: cell ELISA on paraformaldehyde-fixed J82 cells; AP-conjugated goat anti-human IgGγ; absorbance 405/655 nm. The procedure: Cell ELISA plates for measurement of antigen binding were prepared as follows. Cells used were human bladder carcinoma cells J82 (ATCC HTB-1). To 60 wells of a 96-well cell culture plate, 1 ×10^5 J82 cells were inoculated. This was cultured (RPMI1640 medium containing 10% fetal bovine serum (GIBCO)) for one day in a CO_2 incubator to allow the cells to be attached thereto. After discarding the culture liquid, each well was washed twice with 300 μl PBS. 100 μl of PBS containing 4% paraformaldehyde (hereinafter referred to as PFA/PBS) was added to each well, and placed on ice for 10 minutes to immobilize the cells.
PFA/PBS was discarded, and each well was washed twice with 300 μl of PBS, and then blocked with 250 μl of DB. The culture supernatant or purified antibody was serially diluted with DB, 100 μl of which was added to each well. After incubating at room temperature for 2 hours followed by washing with RB, 100 μl of alkaline phosphatase-conjugated goat anti-human IgGγ antibody (BioSource) diluted 1000-fold with DB was added. After incubating for 1 hour followed by washing with RB, the substrate solution was added, and then absorbance at 405/655 nm was measured using the Microplate Reader (Bio-Rad).

T1 sequence (P13726 33-295): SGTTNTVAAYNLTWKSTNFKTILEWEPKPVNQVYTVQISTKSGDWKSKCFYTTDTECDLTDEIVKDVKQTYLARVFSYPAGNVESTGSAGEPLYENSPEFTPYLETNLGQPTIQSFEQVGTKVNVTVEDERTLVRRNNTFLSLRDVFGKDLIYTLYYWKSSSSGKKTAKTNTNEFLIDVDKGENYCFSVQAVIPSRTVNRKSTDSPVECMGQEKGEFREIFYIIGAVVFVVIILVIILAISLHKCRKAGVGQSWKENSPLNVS

B1: H chain humanized version b/L chain humanized version a antibody (antibody, IgG4, V domains shown)
VH: QVQLLESGAVLARPGTSVKISCKASGFNIKDYYMHWVKQRPGQGLEWIGGNDPANGHSMYDPKFQGRVTITADTSTNTAYMELSSLRSEDTAIYYCARDSGYAMDYWGQGTLVTVSS
VL: DIQMTQSPSSLSASVGDRVTITCKASQDIKSFLSWYQQKPGKAPKLLIYYATSLADGVPSRFSGSGSGTDFTLTISSLQPEDFATYYCLQHGESPYTFGGGTKVEIK
notes: also called b-a
By EC50 (read off the curve) is commonly meant the concentration needed to bring the measured effect to its halfway point. Read a high EC50 (read off the curve) as a need for much substance. As for B1, the 50% effective concentration (EC50 (read off the curve)) is about 0.1 µg/mL.

B2: H chain humanized version i/L chain chimeric antibody (antibody, IgG4, V domains shown)
VH: QVQLLESGAVLARPGTSVKISCKASGFNIKDYYMHWVKQRPGQGLEWIGGNDPANGHSMYDPKFQGRVTITADTSTSTAYMELRSLRSDDTAVYYCARDSGYAMDYWGQGTLVTVSS
VL: DIKMTQSPSSMYASLGERVTITCKASQDIKSFLSWYQQKPWKSPKTLIYYATSLADGVPSRFSGSGSGQDYSLTINNLESDDTATYYCLQHGESPYTFGGGTKLEIK
notes: L chain V region is that of mouse ATR-5; also called i-ch
Take B2: the binding result is reported as “binds”.

B3: H chain humanized version e/L chain chimeric antibody (antibody, IgG4, V domains shown)
VH: QVQLLESGAVLARPGTSVKISCKASGFNIKDYYMHWVKQRPGQGLEWIGGNDPANGHSMYDPKFQGRVSITADESTKIAYMELNSLRSEDTAVYFCARDSGYAMDYWGQGTLVTVSS
VL: DIKMTQSPSSMYASLGERVTITCKASQDIKSFLSWYQQKPWKSPKTLIYYATSLADGVPSRFSGSGSGQDYSLTINNLESDDTATYYCLQHGESPYTFGGGTKLEIK
notes: L chain V region is that of mouse ATR-5; also called e-ch
With B3, the concentration giving a half-maximal response (EC50 (read off the curve)) is about 0.05 µg/mL.

B4: H chain chimeric/L chain humanized version b1 antibody (antibody, IgG4, V domains shown)
VH: EVQLQQSGTNLVRPGALVKLSCKGSGFNIKDYYMHWVKQRPEQGLEWIGGNDPANGHSMYDPKFQGKASITADTSSNTAYLQLSSLTSEDTAVYFCARDSGYAMDYWGQGTSVTVSS
VL: DIQMTQSPSSLSASVGDRVTITCKASQDIKSFLSWFQQKPGKSPKTLIYYATSLADGVPSRFSGSGSGTDYTLTISSLQPEDFATYYCLQHGESPYTFGGGTKVEIK
notes: H chain V region is that of mouse ATR-5; also called ch-b1
Consider B4, for which the binding result was “binds”.

B5: H chain humanized version j/L chain chimeric antibody (antibody, IgG4, V domains shown)
VH: QVQLLESGAVLARPGTSVKISCKASGFNIKDYYMHWVKQRPGQGLEWIGGNDPANGHSMYDPKFQGRVTFTADTSANTAYMELRSLRSADTAVYYCARDSGYAMDYWGQGTLVTVSS
VL: DIKMTQSPSSMYASLGERVTITCKASQDIKSFLSWYQQKPWKSPKTLIYYATSLADGVPSRFSGSGSGQDYSLTINNLESDDTATYYCLQHGESPYTFGGGTKLEIK
notes: L chain V region is that of mouse ATR-5; also called j-ch
As to B5, the binding result is “binds”.

B6: H chain chimeric/L chain humanized version b2 antibody (antibody, IgG4, V domains shown)
VH: EVQLQQSGTNLVRPGALVKLSCKGSGFNIKDYYMHWVKQRPEQGLEWIGGNDPANGHSMYDPKFQGKASITADTSSNTAYLQLSSLTSEDTAVYFCARDSGYAMDYWGQGTSVTVSS
VL: DIQMTQSPSSLSASVGDRVTITCKASQDIKSFLSWYQQKPEKAPKSLIYYATSLADGVPSRFSGSGSGTDYTLTISSLQPEDFATYYCLQHGESPYTFGGGTKVEIK
notes: H chain V region is that of mouse ATR-5; also called ch-b2
Consider B6, for which the binding result is “binds”.

B7: H chain humanized version d/L chain humanized version b antibody (antibody, IgG4, V domains shown)
VH: QVQLLESGAVLARPGTSVKISCKASGFNIKDYYMHWVKQRPGQGLEWIGGNDPANGHSMYDPKFQGRVTITADESTSTAYMELSSLRSEDSAVYFCARDSGYAMDYWGQGTLVTVSS
VL: DIQMTQSPSSLSASVGDRVTITCKASQDIKSFLSWYQQKPGKAPKLLIYYATSLADGVPSRFSGSGSGTDYTLTISSLQPEDFATYYCLQHGESPYTFGGGTKVEIK
notes: also called d-b
On to B7, for which the binding result is listed as “binds”.

B8: H chain humanized version j/L chain humanized version b antibody (antibody, IgG4, V domains shown)
VH: QVQLLESGAVLARPGTSVKISCKASGFNIKDYYMHWVKQRPGQGLEWIGGNDPANGHSMYDPKFQGRVTFTADTSANTAYMELRSLRSADTAVYYCARDSGYAMDYWGQGTLVTVSS
VL: DIQMTQSPSSLSASVGDRVTITCKASQDIKSFLSWYQQKPGKAPKLLIYYATSLADGVPSRFSGSGSGTDYTLTISSLQPEDFATYYCLQHGESPYTFGGGTKVEIK
notes: also called j-b
Regarding B8, the binding result is on record as “binds”.

B9: H chain humanized version b/L chain chimeric antibody (antibody, IgG4, V domains shown)
VH: QVQLLESGAVLARPGTSVKISCKASGFNIKDYYMHWVKQRPGQGLEWIGGNDPANGHSMYDPKFQGRVTITADTSTNTAYMELSSLRSEDTAIYYCARDSGYAMDYWGQGTLVTVSS
VL: DIKMTQSPSSMYASLGERVTITCKASQDIKSFLSWYQQKPWKSPKTLIYYATSLADGVPSRFSGSGSGQDYSLTINNLESDDTATYYCLQHGESPYTFGGGTKLEIK
notes: L chain V region is that of mouse ATR-5; also called b-ch
Regarding B9, the “EC50 (read off the curve)” value was about 0.1 µg/mL.

B10: H chain humanized version i/L chain humanized version b1 antibody (antibody, IgG4, V domains shown)
VH: QVQLLESGAVLARPGTSVKISCKASGFNIKDYYMHWVKQRPGQGLEWIGGNDPANGHSMYDPKFQGRVTITADTSTSTAYMELRSLRSDDTAVYYCARDSGYAMDYWGQGTLVTVSS
VL: DIQMTQSPSSLSASVGDRVTITCKASQDIKSFLSWFQQKPGKSPKTLIYYATSLADGVPSRFSGSGSGTDYTLTISSLQPEDFATYYCLQHGESPYTFGGGTKVEIK
notes: also called i-b1
As to B10, the binding result is listed as “binds”.

B11: H chain humanized version g/L chain humanized version b antibody (antibody, IgG4, V domains shown)
VH: QVQLLESGAVLARPGTSVKISCKASGFNIKDYYMHWVKQRPGQGLEWIGGNDPANGHSMYDPKFQGKATLTADESSSTAYMQLSSLRSEDSAVYSCARDSGYAMDYWGQGTLVTVSS
VL: DIQMTQSPSSLSASVGDRVTITCKASQDIKSFLSWYQQKPGKAPKLLIYYATSLADGVPSRFSGSGSGTDYTLTISSLQPEDFATYYCLQHGESPYTFGGGTKVEIK
notes: also called g-b
As for B11, the half-maximal effective concentration (EC50 (read off the curve)) is about 0.04 µg/mL.

B12: H chain humanized version d/L chain chimeric antibody (antibody, IgG4, V domains shown)
VH: QVQLLESGAVLARPGTSVKISCKASGFNIKDYYMHWVKQRPGQGLEWIGGNDPANGHSMYDPKFQGRVTITADESTSTAYMELSSLRSEDSAVYFCARDSGYAMDYWGQGTLVTVSS
VL: DIKMTQSPSSMYASLGERVTITCKASQDIKSFLSWYQQKPWKSPKTLIYYATSLADGVPSRFSGSGSGQDYSLTINNLESDDTATYYCLQHGESPYTFGGGTKLEIK
notes: L chain V region is that of mouse ATR-5; also called d-ch
As to B12, the “EC50 (read off the curve)” value is about 0.07 µg/mL.

B13: H chain humanized version c/L chain chimeric antibody (antibody, IgG4, V domains shown)
VH: QVQLLESGAVLARPGTSVKISCKASGFNIKDYYMHWVKQRPGQGLEWIGGNDPANGHSMYDPKFQGRVTMLVDTSKNQFSLRLSSVTAADTAVYYCARDSGYAMDYWGQGTLVTVSS
VL: DIKMTQSPSSMYASLGERVTITCKASQDIKSFLSWYQQKPWKSPKTLIYYATSLADGVPSRFSGSGSGQDYSLTINNLESDDTATYYCLQHGESPYTFGGGTKLEIK
notes: L chain V region is that of mouse ATR-5; also called c-ch
Regarding B13, the “EC50 (read off the curve)” value is about 0.09 µg/mL.
